Legend:
[1] = molecular target: T1, Zur (Salmonella enterica sv. Typhimurium …, UniProt A0A0H3NVF0 1-171); assay: fluorescence anisotropy; Co(II)-Zur, 1 uM CoCl2; 10 nM probe, 60 mM NaCl, 240 mM KCl, 10 mM HEPES pH 7.0, anaerobic; temperature not stated; conditions: protein: recombinant; chain copies: 4; label: 5' HEX on strand 1; blunt
[2] = molecular target: T1, Zur; assay: fluorescence anisotropy; Zn(II)2-Zur (tightest two exchangeable sites filled); 10 nM probe, 60 mM NaCl, 240 mM KCl, 10 mM HEPES pH 7.0, anaerobic; temperature not stated; conditions: protein: recombinant; chain copies: 4; label: 5' HEX on strand 1; blunt
[3] = molecular target: T1, Zur; assay: fluorescence anisotropy; Zn(II)4-Zur, 1 uM ZnCl2; 10 nM probe, 60 mM NaCl, 240 mM KCl, 10 mM HEPES pH 7.0, anaerobic; temperature not stated; conditions: protein: recombinant; chain copies: 4; label: 5' HEX on strand 1; blunt
[4] = molecular target: T2, ZntR (Salmonella enterica sv. Typhimurium …, UniProt A0A0H3NSQ7 1-141); assay: fluorescence anisotropy; Co(II)-ZntR, 5 uM CoCl2; 10 nM probe, 60 mM NaCl, 240 mM KCl, 10 mM HEPES pH 7.0, anaerobic; temperature not stated; conditions: protein: recombinant; chain copies: 2; label: 5' HEX on strand 1; blunt
[5] = molecular target: T2, ZntR; assay: fluorescence anisotropy; apo, 5 mM EDTA; 10 nM probe, 60 mM NaCl, 240 mM KCl, 10 mM HEPES pH 7.0, anaerobic; temperature not stated; conditions: protein: recombinant; chain copies: 2; label: 5' HEX on strand 1; blunt
[6] = molecular target: T2, ZntR; assay: fluorescence anisotropy; Zn(II)-ZntR, 1.2 eq ZnCl2; 10 nM probe, 60 mM NaCl, 240 mM KCl, 10 mM HEPES pH 7.0, anaerobic; temperature not stated; conditions: protein: recombinant; chain copies: 2; label: 5' HEX on strand 1; blunt

Binder | Kd [1] | Kd [2] | Kd [3] | Kd [4] | Kd [5] | Kd [6]
znuAPro (dsDNA) DNA 1: TAGAATGTTATAATATCACATTTCACACATTCA DNA 2: TGAATGTGTGAAATGTGATATTATAACATTCTA | 31 nM | 41 nM | 54 nM |  |  | 
zntAPro (dsDNA) DNA 1: CTTGACTCTGGAGTCGACTCCAGAGTGTATCCTC DNA 2: GAGGATACACTCTGGAGTCGACTCCAGAGTCAAG |  |  |  | 340 nM | 1100 nM | 650 nM

Source: paper PMC5709419, “Fine control of metal concentrations is necessary for cells to discern zinc from cobalt”
